Laboratory results as given in PMC4922627.

Tests used:
[1] = biological target: TEV-cleaved ICP35 (White spot syndrome virus); experiment: SEC; HiLoad 16/600 Superdex 200; 20 mM Tris-HCl pH 8.0, 200 mM NaCl, 5 mM MgSO4; peak fractions checked by SDS-PAGE
[2] = biological target: TEV-cleaved ICP35 (White spot syndrome virus); experiment: SDS-PAGE without boiling; purified protein loaded on 12% SDS-PAGE with and without boiling, Coomassie stain and Western blot; TEV-cleaved ICP35 concentrated to 10 mg/ml to induce oligomerization

Substance: TEV-cleaved ICP35 (domain or fragment)
- stoichiometry N [1]: 2
- stoichiometry N [2]: 2
